In publication PMC9416547 (Nucleic Acid Therapeutics, 2022):

What was measured:
[1] = target: T1, MBP-tagged full-length NAT10 (UniProt Q9H0A0 1-1025); test: pull-down
T1 sequence (looked up): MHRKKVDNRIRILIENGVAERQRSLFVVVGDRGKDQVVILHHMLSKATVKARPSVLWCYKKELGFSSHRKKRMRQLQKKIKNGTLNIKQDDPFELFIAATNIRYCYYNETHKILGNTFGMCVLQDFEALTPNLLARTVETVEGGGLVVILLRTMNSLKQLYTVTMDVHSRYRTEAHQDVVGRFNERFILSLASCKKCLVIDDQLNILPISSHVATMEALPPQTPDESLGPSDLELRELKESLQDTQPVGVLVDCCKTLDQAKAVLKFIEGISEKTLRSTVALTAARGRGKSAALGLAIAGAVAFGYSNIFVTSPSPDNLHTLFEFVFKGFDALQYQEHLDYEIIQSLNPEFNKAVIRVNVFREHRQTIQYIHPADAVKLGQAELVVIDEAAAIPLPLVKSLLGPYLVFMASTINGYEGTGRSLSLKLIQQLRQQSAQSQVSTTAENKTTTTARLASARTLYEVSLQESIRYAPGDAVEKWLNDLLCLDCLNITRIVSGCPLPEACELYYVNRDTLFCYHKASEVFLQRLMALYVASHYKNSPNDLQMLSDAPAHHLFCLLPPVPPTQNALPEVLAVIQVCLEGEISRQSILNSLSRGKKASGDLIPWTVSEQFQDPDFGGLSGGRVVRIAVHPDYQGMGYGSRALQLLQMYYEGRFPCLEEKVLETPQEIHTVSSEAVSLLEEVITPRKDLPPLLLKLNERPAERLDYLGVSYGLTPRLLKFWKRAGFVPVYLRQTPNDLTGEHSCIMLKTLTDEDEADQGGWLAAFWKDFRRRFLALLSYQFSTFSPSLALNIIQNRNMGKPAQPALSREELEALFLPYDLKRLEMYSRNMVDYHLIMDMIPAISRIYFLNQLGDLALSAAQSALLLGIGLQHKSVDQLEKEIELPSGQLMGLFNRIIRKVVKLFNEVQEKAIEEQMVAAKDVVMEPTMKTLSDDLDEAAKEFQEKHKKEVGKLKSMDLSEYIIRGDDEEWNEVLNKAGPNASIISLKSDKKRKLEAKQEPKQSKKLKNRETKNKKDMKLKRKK

[2] = target: T2, MBP-tagged NAT10 CTD (541-1025 AA) (UniProt Q9H0A0 541-1025); test: pull-down
T2 sequence (looked up): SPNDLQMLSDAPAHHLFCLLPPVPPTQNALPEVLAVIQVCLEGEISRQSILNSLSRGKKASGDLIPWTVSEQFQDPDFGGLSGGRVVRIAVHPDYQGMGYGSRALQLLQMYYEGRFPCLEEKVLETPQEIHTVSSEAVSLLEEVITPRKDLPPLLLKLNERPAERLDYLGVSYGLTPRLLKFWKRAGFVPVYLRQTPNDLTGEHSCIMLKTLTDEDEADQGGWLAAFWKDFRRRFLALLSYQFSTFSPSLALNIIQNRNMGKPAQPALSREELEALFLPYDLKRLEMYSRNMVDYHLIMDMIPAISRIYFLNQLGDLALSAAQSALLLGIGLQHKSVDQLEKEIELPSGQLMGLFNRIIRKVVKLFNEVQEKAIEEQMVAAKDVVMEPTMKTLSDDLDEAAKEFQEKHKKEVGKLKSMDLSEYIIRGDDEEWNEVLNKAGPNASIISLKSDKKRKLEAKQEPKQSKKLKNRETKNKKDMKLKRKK

- binding result [1]: binds
- binding result [2]: binds
B1: GST-fused full-length RNase H1 (enzyme, human, UniProt O60930 1-286, looked up)
chain: MSWLLFLAHRVALAALPCRRGSRGFGMFYAVRRGRKTGVFLTWNECRAQVDRFPAARFKKFATEDEAWAFVRKSASPEVSEGHENQHGQESEAKASKRLREPLDGDGHESAEPYAKHMKPSVEPAPPVSRDTFSYMGDFVVVYTDGCCSSNGRRRPRAGIGVYWGPGHPLNVGIRLPGRQTNQRAEIHAACKAIEQAKTQNINKLVLYTDSMFTINGITNWVQGWKKNGWKTSAGKEVINKEDFVALERLTQGMDIQWMHVPGHSGFIGNEEADRLAREGAKQSED
